Results as given in patent US20180346602A1.

Experiments:
[1] = biological target: anti-VEGF/ANG2 antibody (IgG1 subclass with mutations P329G/L234A/L235A/I253A/H310A/H435A) [IgG part: P01857]; assay: sandwich ELISA assay A; capture M1.7.10-Bi; antibody 1 at 2 ng/mL
[2] = biological target: anti-IGF-1R antibody (IgG1 subclass with mutations I253A/H310A/H435A) [IgG part: P01857]; assay: sandwich ELISA assay A; capture M1.7.10-Bi; antibody 3 at 2 ng/mL
[3] = biological target: anti-VEGF/ANG2 antibody (IgG1 subclass with mutations P329G/L234A/L235A) [IgG part: P01857]; assay: sandwich ELISA assay A; capture M1.7.10-Bi; antibody 2 at 100 ng/mL
[4] = biological target: anti-VEGF/ANG2 antibody (wild-type IgG1 subclass) (human) [IgG part: P01857]; assay: sandwich ELISA assay C; capture on SA plate; tracer FcγRI-Dig; analyte 6 ng/mL
[5] = biological target: anti-VEGF/ANG2 antibody (wild-type IgG1 subclass) (human) [IgG part: P01857]; assay: sandwich ELISA assay B; capture on SA plate; tracer M1.7.10-Dig; analyte 2 ng/mL
[6] = biological target: anti-VEGF/ANG2 antibody (wild-type IgG1 subclass) (human) [IgG part: P01857]; assay: sandwich ELISA assay C; capture on SA plate; tracer FcγRI-Dig; analyte 100 ng/mL
[7] = biological target: anti-VEGF/ANG2 antibody (wild-type IgG1 subclass) (human) [IgG part: P01857]; assay: sandwich ELISA assay B; capture on SA plate; tracer M1.7.10-Dig; analyte 13 ng/mL
[8] = biological target: anti-IGF-1R antibody (IgG1 subclass with mutations I253A/H310A/H435A) (human) [IgG part: P01857]; assay: sandwich ELISA assay B; capture on SA plate; tracer M1.7.10-Dig; analyte 25 ng/mL
target antibodies = assay: depletion of target antibody from sample; concentration before depletion 0.30 µg/mL
[9] = biological target: anti-VEGF/ANG2 antibody (wild-type IgG1 subclass) (human) [IgG part: P01857]; assay: sandwich ELISA assay B; capture on SA plate; tracer M1.7.10-Dig; analyte 0 ng/mL (blank)
[10] = biological target: anti-VEGF/ANG2 antibody (IgG1 subclass with mutations P329G/L234A/L235A/I253A/H310A/H435A) [IgG part: P01857]; assay: sandwich ELISA assay E; tracer M1.7.10-Dig; analyte 1) at 25 ng/mL
[11] = biological target: anti-VEGF/ANG2 antibody (IgG1 subclass with mutations P329G/L234A/L235A) [IgG part: P01857]; assay: sandwich ELISA assay E; tracer M1.7.10-Dig; analyte 2) at 25 ng/mL
[12] = biological target: anti-VEGF/ANG2 antibody (IgG1 subclass with mutations P329G/L234A/L235A) [IgG part: P01857]; assay: sandwich ELISA assay E; tracer M1.7.10-Dig; analyte 2) at 50 ng/mL
[13] = biological target: anti-VEGF/ANG2 antibody (IgG1 subclass with mutations P329G/L234A/L235A/I253A/H310A/H435A) [IgG part: P01857]; assay: sandwich ELISA assay E; tracer M1.7.10-Dig; analyte 1) at 100 ng/mL
[14] = biological target: anti-VEGF/ANG2 antibody (IgG1 subclass with mutations P329G/L234A/L235A) [IgG part: P01857]; assay: sandwich ELISA assay E; tracer M1.7.10-Dig; analyte 2) at 100 ng/mL
[15] = biological target: anti-VEGF/ANG2 antibody (IgG1 subclass with mutations P329G/L234A/L235A) [IgG part: P01857]; assay: sandwich ELISA assay E; tracer M1.7.10-Dig; analyte 2) at 12.5 ng/mL
[16] = biological target: anti-VEGF/ANG2 antibody (IgG1 subclass with mutations P329G/L234A/L235A) [IgG part: P01857]; assay: sandwich ELISA assay E; tracer M1.7.10-Dig; analyte 2) at 0 ng/mL (blank)
[17] = biological target: anti-Dig antibody (IgG1 subclass with mutations P329G/L234A/L235A) [IgG part: P01857]; assay: sandwich ELISA assay D; tracer M1.7.10-Dig; analyte conc. not printed (row 2 of 8)
[18] = biological target: anti-Dig antibody (IgG1 subclass with mutations P329G/L234A/L235A) [IgG part: P01857]; assay: sandwich ELISA assay D; tracer M1.7.10-Dig; analyte conc. not printed (row 6 of 8)
[19] = biological target: anti-Dig antibody (IgG1 subclass with mutations P329G/L234A/L235A) [IgG part: P01857]; assay: sandwich ELISA assay D; tracer M1.7.10-Dig; analyte conc. not printed (row 7 of 8)
[20] = biological target: anti-Dig antibody (IgG1 subclass with mutations P329G/L234A/L235A) [IgG part: P01857]; assay: sandwich ELISA assay D; tracer M1.19.31-Dig; analyte conc. not printed (row 2 of 8)
[21] = biological target: anti-Dig antibody (IgG1 subclass with mutations P329G/L234A/L235A) [IgG part: P01857]; assay: sandwich ELISA assay D; tracer M1.19.31-Dig; analyte conc. not printed (row 5 of 8)
[22] = biological target: anti-Dig antibody (IgG1 subclass with mutations P329G/L234A/L235A) [IgG part: P01857]; assay: sandwich ELISA assay D; tracer M1.19.31-Dig; analyte conc. not printed (row 6 of 8)
[23] = biological target: anti-Dig antibody (IgG1 subclass with mutations P329G/L234A/L235A) [IgG part: P01857]; assay: sandwich ELISA assay D; tracer M1.19.31-Dig; analyte conc. not printed (row 7 of 8)

Row | Binder | signal [OD405 nm] [1] [OD405 nm] | signal [OD405 nm] [2] [OD405 nm] | signal [OD405 nm] [3] [OD405 nm] | signal [OD405 nm] [4] [OD405 nm] | signal [OD405 nm] [5] [OD405 nm] | signal [OD405 nm] [6] [OD405 nm] | signal [OD405 nm] [7] [OD405 nm] | signal [OD405 nm] [8] [OD405 nm] | concentration after depletion (target antibodies) [µg/mL] | recovery [%] (target antibodies) | signal [OD405 nm] [9] [OD405 nm] | signal [OD405 nm] [10] [OD405 nm] | signal [OD405 nm] [11] [OD405 nm] | signal [OD405 nm] [12] [OD405 nm] | signal [OD405 nm] [13] [OD405 nm] | signal [OD405 nm] [14] [OD405 nm] | signal [OD405 nm] [15] [OD405 nm] | signal [OD405 nm] [16] [OD405 nm] | signal 10% cynomolgus serum [OD405 nm] [17] [OD405 nm] | signal 10% human serum [OD405 nm] [17] [OD405 nm] | other results
1 | anti-AAA variant Fc-region antibody M1.6.22 (antibody, V domains shown) VH: EVQLVESGGDLVKPGGSLKLSCAASGFTFSSYGMSWVRQTPDKRLEWVATISSGGSYIYYPDSVKGRFTISRDNAKNTLYLQMSSLKSEDTAMYYCARLGMITTGYAMDYWGQGTSVTVSS VL: DVLMTQTPLSLPVSLGDQASISCRSSQTIVHSTGHTYLEWFLQKPGQSPKLLIYKVSNRFSGVPDRFSGSGSGTDFTLKISRVEAEDLGVYYCFQGSHVPYTFGGGTKLEIK | 0.055 | 0.199 | 0.076 | 0.064 | 0.036 | 0.076 | 0.046 | 2.89 | 0.0001 | 0.039 | 0.037 |  |  |  |  |  |  |  |  |  | 
2 | anti-variant (human) Fc-region antibody M1.3.17 (antibody, V domains shown) VH: EVKLLESGGGLVQPGGSLKLSCAASGIDFRRYWMNWVRQAPGKGLEWIGEIDPDSSTINYTPSLKDKFIISRDNAKNTMYLQMRKVRSEDTALYYCARPYDYGAWFAYWGQGTLVTVSA VL: QAVVTQESALTTSPGETVTLTCRSTTGAVTTSNYANWVQEKPDHLFTGLIGGTNKRAPGVPARFSGSLIGDKAALTITGAQTEDEAIYFCALWYSDHWVFGGGTKLTVL | 0.043 | 0.042 | 3.04 |  |  |  |  | 0.046 | 0.0002 | 0.065 |  | 1.6 | 1.48 | 1.89 | 2.29 | 2.27 | 0.96 | 0.027 | 1.18 | 2.55 | signal buffer [OD405 nm] [17]: 0.038 OD405 nm; signal 10% cynomolgus serum [OD405 nm] [18]: 0.065 OD405 nm; signal 10% human serum [OD405 nm] [18]: 2.53 OD405 nm; signal buffer [OD405 nm] [18]: 0.032 OD405 nm; signal 10% cynomolgus serum [OD405 nm] [19]: 0.052 OD405 nm; signal 10% human serum [OD405 nm] [19]: 2.53 OD405 nm; signal buffer [OD405 nm] [19]: 0.029 OD405 nm; signal 10% cynomolgus serum [OD405 nm] [20]: 0.872 OD405 nm; signal 10% human serum [OD405 nm] [20]: 2.14 OD405 nm; signal buffer [OD405 nm] [20]: 0.041 OD405 nm; signal 10% cynomolgus serum [OD405 nm] [21]: 0.105 OD405 nm; signal 10% human serum [OD405 nm] [21]: 1.71 OD405 nm; signal buffer [OD405 nm] [21]: 0.036 OD405 nm; signal 10% cynomolgus serum [OD405 nm] [22]: 0.082 OD405 nm; signal 10% human serum [OD405 nm] [22]: 1.67 OD405 nm; signal buffer [OD405 nm] [22]: 0.033 OD405 nm; signal 10% cynomolgus serum [OD405 nm] [23]: 0.075 OD405 nm; signal 10% human serum [OD405 nm] [23]: 1.71 OD405 nm; signal buffer [OD405 nm] [23]: 0.033 OD405 nm
3 | anti-variant (human) Fc-region antibody M1.7.24 (antibody, V domains shown) VH: EVKLLESGGGLVQPGGSLKLSCAASGFDFSRYWMNWVRQAPGKGLEWIGEITPDSSTINYTPSLKDKFIISRDNAKNTLYLQMIKVRSEDTALYYCVRPYDYGAWFASWGQGTLVTVSA VL: QAVVTQESALTTSPGETVTLTCRSSTGAVTTSNYANWVQEKPDHLFTGLIGGTNKRAPGVPARFSGSLIGDKAALTITGAQTEDEAIYFCALWYSNHWVFGGGTKLTVL | 0.042 | 0.048 | 2.65 | 0.057 | 0.034 | 0.073 | 0.04 | 0.048 |  |  | 0.039 | 1.55 | 1.39 | 1.8 | 2.31 | 2.22 | 0.884 | 0.028 | 1.41 | 2.61 | signal buffer [OD405 nm] [17]: 0.046 OD405 nm; signal 10% cynomolgus serum [OD405 nm] [18]: 0.05 OD405 nm; signal 10% human serum [OD405 nm] [18]: 2.4 OD405 nm; signal buffer [OD405 nm] [18]: 0.031 OD405 nm; signal 10% cynomolgus serum [OD405 nm] [19]: 0.041 OD405 nm; signal 10% human serum [OD405 nm] [19]: 2.44 OD405 nm; signal buffer [OD405 nm] [19]: 0.034 OD405 nm; signal 10% cynomolgus serum [OD405 nm] [20]: 1.17 OD405 nm; signal 10% human serum [OD405 nm] [20]: 2.04 OD405 nm; signal buffer [OD405 nm] [20]: 0.051 OD405 nm; signal 10% cynomolgus serum [OD405 nm] [21]: 0.078 OD405 nm; signal 10% human serum [OD405 nm] [21]: 1.33 OD405 nm; signal buffer [OD405 nm] [21]: 0.033 OD405 nm; signal 10% cynomolgus serum [OD405 nm] [22]: 0.049 OD405 nm; signal 10% human serum [OD405 nm] [22]: 1.36 OD405 nm; signal buffer [OD405 nm] [22]: 0.033 OD405 nm; signal 10% cynomolgus serum [OD405 nm] [23]: 0.039 OD405 nm; signal 10% human serum [OD405 nm] [23]: 1.39 OD405 nm; signal buffer [OD405 nm] [23]: 0.033 OD405 nm
